Reference: the DeepSol protein solubility set

Test: soluble on expression in E. coli; label from the status in PepcDB or PDB records

Sequence | soluble on expression in E. coli
MSLSSKLRLQLDAHASIHENVRRLLQFTTSIMEANEEGIRKDIDSEFLHDFRVAIRRSRSILRLLNGVFDPEKTAWMLAGLRELGKRTNDLRDSDVYLLRREEYTSLLPPSLRPALDPFFSDLEADKRLHHRQFCRYLTGREYSGFMTSLKEFIAEGELPDPETAPLAAEPTGDVAAKTIRKALKKVLVHGRRTGSETSDAELHELRIDCKKLRYLLEFFASLFPPKATAQVLRQMKTLQDNLGTFVDLTVQMEFLQSRLETIPADRGGISEAAAIGGLLTTLYRKREKVREHFHEIFSGFDSNETGELFDELLTGLAEGHHHHHH | soluble
MGSDKIHHHHHHMLEFTLNFNDYGLKMGILTKLELDYEIDDIEKFLQFFRTMCDRFEPLIIKLGSDSVRYKEAIKELETLAHNTAWAARRLNLEEVTDFCVFCEEMMAQANRFNGPASDEFTDWMLLMSDQFEKYCRSYENDDSVLAVFNPLIVNVPNIISK | not soluble
MQRHERIRFFITEQCRNLDPTYRNYMYPKQILLGDVPLPLLPNSSLTFRVNSAEKICFRIRLSIDDSQEPLNIGIPLSQVESVSIKDHSAKHPEPALLFLLKKGALERFIQVCNPLLGELHTYHGRKRKMLTYLTVILGMDPHLEQPNPVYCRVSLMANKFTFPFGTAKKILLKDLPIMWQEVLDKQYDRRLKTGIHHDRERMAEMDDEAWDWLMSFLNVKWDKCPSGGRWFVRDKDEILQSNEKLHHKMIYWLNQ | not soluble
ETELEQKAIDYDELERLNSTIVSNLNSGLITVTGDGRIRVFNRYAEALTGIGLAEAYDCHLFDVLPGFRVYADVLANVKRGEFEFIAKMGRKLTIGFSSVPLMLKDSDAAGILLNFQDVT | not soluble
MGSDKIHHHHHHMLSHETIWNAIDRLAEQYHLTPSGLARKAGLDPTSFNKSKRVGPDGRMRWPSTESIAKVLEATGARIDQFVTLISNDNHQVNAVHETLPDGNFPPQIGTIPLLGLAQAGSGGFFDDGGFPAGQGWDLVDLPTSAKPGVYALEIQGDSMKPLYRDGDILIVEPGAPVRRGDRVVVKTCDGEVMAKVLGRQTARTVDLISINPDHPNRVLDMQDVEWIARIIWVSQ | not soluble
MSLIMITAEMVPPDLLIKRLAIYLKENVKTVDPPEWALLAKTASFKERVPDNAEDWWYIRAASLLRKLYVNSIIGIEKTRTIYGGRKRRGTRPEKFVKAPGHVNRLIFQQLEKAGLVQKIKNKGRSLSPKGRSLLDKLALEIFKELAENNTSLKVYLELEHHHHHH | soluble
GPGSMRCVRSAAVLVKFGRSFDSTTRFGKELGFSHKMRDIPVLTGNPRPVAREEEWSCRYKLTDRMEDVVMDILKKEGWCEAEVQREMSEIFERKTQGCRSSLNTWTTVEEFQRTPWYRRYKPTDTCVAKYISYEVVKLLEEALIPPSLRGDPYAHLRKRHMEDNWMNDRFSEEAAKYIQREDLNKHTKGLPQYGQITRRKFLEFDRQFKESYGGKQHVNEAYSAWLQSIGKG | not soluble
KTSDANETEDHLESLICKVGEKSACSLESNLEGLAGVLEADLPNYKSKILRLLCTVARLLPEKLTIYTTLVGLLNARNYNFGGEFVEAMIRQLKESLKANNYNEAVYLVRFLSDLVNCHVIAAPSMVAMFENFVSVTQEEDVPQVRRDWYVYAFLSSLPWVGKELYEKKDAEMDRIFANTESYLKRRQKTHVPMLQVWTADKPHPQEEYLDCLWAQIQKLKKDRWQERHILRPYLAFDSILCEALQHNLPPFTPPPHTEDSVYPMPRVIFRMFDYTDDPEGPVMPGSHSVERFVIEENLHCIIKSHWKERKTCAAQLVSYPGKNKIPLNYHIVEVIFAELFQLPAPPHIDVMYTTLLIELCKLQPGSLPQVLAQATEMLYMRLDTMNTTCVDRFINWFSHHLSNFQFRWSWEDWSDCLSQDPESPKPKFVREVLEKCMRLSYHQRILDIVPPTFSALCPSNPTCIYKYGDESSNSLPGHSVALCLAVAFKSKATNDEIFSILKDVPNPNQDDDDDEGFSFNPLKIEVFVQTLLHLAAKSFSHSFSALAKFHEVFKTLAESDEGKLHVLRVMFEVWRNHPQMIAVLVDKMIRTQIVDCAAVANWIFSSELSRDFTRLFVWEILHSTIRKMNKHVGAQSEQKNLFLVIFQRFIMILTEHLVRCETDGTSVLTPWYKNCIERLQQIFLQHHQIIQQYMVTLENLLFTAELDPHILAVFQQFCALQA | soluble
MATFNSYTVDEIREIVDPDHPETLLEQAKGWAEMADLLSEYGVLLEQRLELVEDSWTGDAARLYFDEVKRMQEYIEESAERATTNAGLWFLIGTLAGIAKHDVSYIHKLWKDLDNVTDAVGLGFILEAIGVDKAVEDFKRMPYDVASRQIMEATATAAEESYSQMRDFEEFKPPPDVDGSGPTLQSVSAVAPPGGAVSLPSTTIVSNAAMPPLGPVAMRPVVPGVIGSRPGMTSMPRPMMGPGHTVRPVIGQRTGESQQTKTPGRLIGRYGVVSATPDVDMRDPKASRIHYGGDDVNRGVIKNNDPQRAAEEARFKLEEEVLRLRERAFAHRADDLTPAHTQHVLPGIVGDDSGWDRKTHDPGPVAFEMRRRPDRDDDAWTVI | not soluble
MAKIGFIGFGSMASLIATKIIETEVATPEEIILYSNSKNEHFNQFYTKYPTAELADNEAEIFTKADHSFVCKLPLAVLPLMKDCAAVLTPDRHVVSIAAGVSTSDIIEITPGLQVSKLIPSLTTAVNVGTTLIAHAETVNQTNTSWLETTFEHFGHVMTIREENMDIASDLTSSSPGIIAAIFEQFVEAALRRSSLSDAEVFQMINFALAGTSKLLVEEDYTFSGLIQRVATKDGTTAEGVELSKAQLPNFFDELLDRTQNKYASSEKEIQAQKRELLSLEHHHHHH | soluble
GPGSMQLDDWDTYRETLLYARELAVLLPSSWSELSSEQSATKSSSSLSHSSSLPSLAFVKRVEAPLLTQWMTAAAAAPVTCHCSSVGDSVEDMDYATAVVAARWTRMLGMWIVLRVELLCNTSGGVLTLAEEYEVGRYRQYFVPLAWPMLDRSIRERLAARLCALADKRRVSQPMGGTSCANDMAASSFCGTLLGKDEEDEQACDEVCTRAMEATQRVAREQLRISWDALHPSSIPATVGAKLKRLSAQQSRRHESETGSLPRPVVVHTNCLGGLLHALTSFRLRPQRQHADHGSAPLLTLTQNALLHIGYDLLTKVRSSVIERCYYLIPALLDYESCLLFCEAMLKESAALQAHEKELTRTQSILRLTLQSLLQSALGMYRHVIEALLVDYKKSACKSSASSTPRLVKVSAHLLPANPLVAQEAAQKQHASDAVVPSKPPTHPGAADGCSASAVMRLSEPAFSILVEVLEPTCDLLQRYPADWNVLWTRSLTGPDGRDQGATSGSHIAREGGLLSPSSRRQRLVSQQRQRSIAMDVRREVVSFLDAEVSNCFAAAAAGSGAASKKAQQQAAADAYLTATYLSAYGPHWL | not soluble
MSLKYAVLGATGLLGHHAARAIRAAGHDLVLVHRPSSQIQRLAYLEPECRVAEMLDHAGLERALRGLDGVIFSAGYYPSRPRRWQEEVASALGQTNPFYAACLQARVPRILYVGSAYAMPRHPQGLPGHEGLFYDSLPSGKSSYVLCKWALDEQAREQARNGLPVVIGIPGMVLGELDIGPTTGRVITAIGNGEMTHYVAGQRNVIDAAEAGRGLLMALERGRIGERYLLTGHNLEMADLTRRIAELLGQPAPQPMSMAMARALATLGRLRYRVSGQLPLLDETAIEVMAGGQFLDGRKAREELGFFSTTALDDTLLRAIDWFRDNGYFNTEGHHHHHH | soluble
MAAEIINGEKVIRKPNALYSDYPRKGGAASTATHYCPGCGHGVLHKLIAEAIDDLGIQDRTVMISPVGCAVFAYYYFDTGNIQVAHGRAPAVGTGVSRAEENAVVISYQGDGDLASIGLNETLQAANRGEKIAVFFVNNTVYGMTGGQMAPTTLIGEKTTTTPEGRDPRFAGYPLHMCELLDNLKAPVFIERVSVSDISHIRKARKAIRKALEVQRDGKGYAFVEVLAACPTNLRMDAEQAVSFINEEMEKEFPLRNFRDDSESTEPLYRGVSDFTTESLEKLYGIEADAGEKPVRADFAPIQTKIAGFGGQGVLSMGIVLAQAGVKANLNASWFPSYGPEQRGGTSNCSVVISGQPIGSPTVYTPDILIAMNRPSLERFEGAVRKGGFILYDSTIGEAETPEGVKAVSVPATEKAKEAGDERAANSFMLGVLLGLNATGLEEEAFKGALAENFAGKPRVIAFNQQMLEAGAEWARENVKI | not soluble
MGSDKIHHHHHHMLRGKDATLAAIINIILDEEPETQDDIADRLGVSRRYVAKLLKPLVDGGAIMHPYVVNLEKLKEFEEYIETDRYFKEIYETFDRMGTNVIQNIDKVFDSLKTHDLDIAKSIILEDYALNRMEDEVNLVIKMKASKYMDMNSLMQVSNIAANIERCGDYLSNIAEEVVNGLLVDPAIKKEVFEIKEIISKMFAHAMNMVKSKTIETEIYELEGNLHKKLDTMMEKIAEHPDENLKDINQFIQFGMFLKDVERFGDRCLKIFELGREFHHNIPKNVTTPEYVRNLK | not soluble
MGSDKIHHHHHHMSHTEVKLKIPFGNKLLDAVCLVPNKSLTYGIILTHGASGDMNLPHLMSLASHLASHGFFCLRFTCKGLNIVHRIKAYKSVLNYLKTSGEYKLAGVFLGGRSMGSRAAASVMCHIEPDDGDDFVRGLICISYPLHHPKQQHKLRDEDLFRLKEPVLFVSGSADEMCEKNLLEKVAQKMQAPHKIHWIEKANHSMAVKGRSTNDVFKEINTQILFWIQEITEMDKKCH | not soluble
MTKVTHLPADDRSCGWYHLSPPRRPKPAHYGRSAARWVVVGAGFTGLAAARQLALHFPDEEIVLVEAQEVGFGTAGRNAGFAIDLPHDIGADDYIGDIATARIGLKLNLAGQSLLREQVQRHAIDCQMKACGKYQAAVEARGVAVLDAYRRGLDRLGQAYEVIEADDLPGNIGTAFYRKALFTPGTLLVQPSALVKGLADSLPGNVSLYEHTPITAVEYGDRTLLSHPHGSILADRLVLANNAFGMSFGFLQGRMLPIFTYASLTRPLDAEEQARLGGRPYWGLIPANPYGTTVRRTPDNRLLIRNSFSFNPDGRSAGKYLERFAVRHRASFRQRFPMLPEVGFDYTWGGSLALSRNHMGHFGELAPNVYGALCCNGLGVTRGTVTGKLLADWLAGERNELIDFLLRAPGPSGNPPEPLLSLGVNLNLRWGQYRAGRESLEHHHHHH | not soluble
MRQRYLALLSLFASLPAMAISFQTRLESIEWKVEGDQFECRLTQPITDFGAGEFVRRAGEQATFRLKASYNMLGNGSATLLAAAAPWQPGRGDINLGSVRVSNGDIPFNTSQAQAGRLISGLMDGRSPLIRHYNRDGGQMEVRLLPVKFSKAFSDYQACTAKLLPMNFDQVKQAEVGFPGGGIELDANAKARLDNMVAYLKADPTVNRIELDGHSDNSGNRLTNRDLSRRRALAVMDYFKAQGIPEQQITLRFHGERYPLAPNTNNANRARNRRVNVHLERVAPDERPVPVASSASAAHTS | not soluble
MHYSYLEPGLHAELAAITPDEAVAHLRNHLGNLLLDPAVTAAYINRLGVLTPEETTPSTRAWLTYLLVRYCDLLPLDLAAQRILAQVTGNAAPHLRDLERCAIPDPIERKLERLGAGEDSERNRAMLLALLHEYPYSPAIMERLMTVELALDIPVGGEWLPSVRPPAGLLRPLHERLFIHAMMQGDTERALQHAAACVPDNPSPHLLNHLAELHARLGDTQQALNLYGASLEADPLQHPVRLRMEALAKPPRAHADALHHRIAICLYSFNKAELLERTLSSLAASQTGEAHILVLLNGCTDDSATRVAAVNERLFNGRLEVIDMPINIGAPAARNWLLAKQTVREADFVAFLDDDVDVPAAWLPRLVGNLEEHPGAGVAGTRVRNPGDVPRLQYLYRNISVARPGLIRLSLDTPTLHHDTGFYDFTRSTTSVMGCCHVFTRRALDEVPAFDLRFSPSQMDDIAHDIDLALAGFDVLYTGDVVCVHHQMSGLGRANATDWKRFGNVAGNDVKFYYRFADRLDALGRLNNLGFMPDMPPALEHHHHHH | soluble
MNNLALQSLTESIAIKYFGKAFKHEVYYNKRLRTTGGRYILSSHNIEINPKQYEMFGEKAVIDIIKHELCHYFLHLAGEGYQHRDKAFKSLSAKVGAPRFCTPTESYQDRANYKYRCIYCEQEFIRIKRVNLEKMRCGRCGGILKLLQTRKLEHHHHHH | not soluble
